Holding throughout (assay): G assay ELISA, E6 PL peptide titrated on constant GST-PDZ
A general note: An ELISA detects its analyte on a solid surface through an enzyme-linked reagent.

The target in assay [1] is GST-SIP1 PDZ domain 1 (human).
For assay [2], the target named is GST-SAST1 PDZ domain (human), Q9Y2H9.
Assay [3] concerns the target GST-DLG2 PDZ domain 3 (human).
For assay [4], the target named is GST-MAGI1 PDZ domain 2 (human).
In assay [5] the target is GST-DLG3 PDZ domains 1-2 (human), Q92796.
GST-DLG3 PDZ domains 1-2 (human), Q92796, sequence (Q92796 other isoform, or with tags, fused parts or gaps limits assumed): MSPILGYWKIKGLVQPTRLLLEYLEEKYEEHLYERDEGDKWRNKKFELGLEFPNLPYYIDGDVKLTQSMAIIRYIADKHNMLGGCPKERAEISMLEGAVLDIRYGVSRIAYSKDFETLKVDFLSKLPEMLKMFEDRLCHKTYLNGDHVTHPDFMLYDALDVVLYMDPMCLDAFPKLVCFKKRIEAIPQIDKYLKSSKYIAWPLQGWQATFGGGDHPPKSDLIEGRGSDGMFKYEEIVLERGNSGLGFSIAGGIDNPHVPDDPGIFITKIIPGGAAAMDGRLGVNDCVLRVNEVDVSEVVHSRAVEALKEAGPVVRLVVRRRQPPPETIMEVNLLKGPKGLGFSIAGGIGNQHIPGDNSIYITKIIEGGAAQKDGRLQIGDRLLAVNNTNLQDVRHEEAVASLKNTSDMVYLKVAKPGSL
Assay [6] concerns the target GST-SAST2 PDZ domain 1 (human).
Assay [7] has as its target GST-PSD95 PDZ domains 1-3 (human), P78352.
Assay [8] deals with GST-PSD95 PDZ domain 2 (human).

Ends that are not written are not given here.

GST-SAST1 PDZ domain (human), Q9Y2H9, sequence (Q9Y2H9 other isoform, or with tags, fused parts or gaps limits assumed): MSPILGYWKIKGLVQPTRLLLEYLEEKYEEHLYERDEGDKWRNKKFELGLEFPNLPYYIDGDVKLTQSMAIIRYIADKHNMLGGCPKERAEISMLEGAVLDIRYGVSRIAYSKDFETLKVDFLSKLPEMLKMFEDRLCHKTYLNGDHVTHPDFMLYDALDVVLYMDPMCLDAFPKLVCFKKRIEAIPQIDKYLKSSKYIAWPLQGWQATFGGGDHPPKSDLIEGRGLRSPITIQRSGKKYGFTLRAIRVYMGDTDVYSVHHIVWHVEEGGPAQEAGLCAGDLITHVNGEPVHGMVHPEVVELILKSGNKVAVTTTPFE

B1: HPV16 E6 C-terminal PDZ ligand peptide (20 mer, biotinylated), P03126 139-158 (peptide)
peptide: WTGRCMSCCRSSRTRRETQL
modifications: not fully specified; cysteine pairing not given here
Regarding B1, the EC50 turned out to be 7500 nM in assay [1]; 580 nM in assay [2]; 1600 nM in assay [3]; 56 nM in assay [4]; 3800 nM in assay [5]; 1200 nM in assay [6]. Further, the results for the EC50 in assay [7] and in assay [8] were 1000 nM and 6800 nM, respectively.

The term EC50 denotes the midpoint of the concentration-response curve.
